This assay deals with bacterially produced mm PCDH15 EC9-MAD12 (Mus musculus). As to the kind of experiment: SAXS.

In general, stoichiometry N refers to the number of molecules, sites or subunits per partner or assembly.

The substance “bacterially produced mm PCDH15 EC9-MAD12 (domain or fragment)” registered a stoichiometry N of 2.

For the origin of these results see publication PMC7547225.
